Measured values from the supplement of paper PMC9170038.

Tested on: MS2 coat protein
Assay: apparent KD of MS2 coat protein; designed switch direction (-1 OFF switch, 1 ON switch): -1; higher = weaker reporter binding
Summary of the method: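 For each design, the apparent KD is the median over clusters of curves fitted to normalised cluster fluorescence. Clusters held RNA switches with common flanks, transcribed on Illumina chips by stalled E. coli RNA polymerase. These were titrated with SNAP-549-labelled MS2 coat protein, doubling from 0.7 or 1.5 nM to 3 µM, without input, with 200 uM small-molecule ligand, or with an oligonucleotide input.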

[1] = Eterna round: R95, input ligand: microRNA oligo, concentration not stated
[2] = input ligand: microRNA oligo, concentration not stated
[3] = Eterna round: R95, input ligand: FMN 200 uM
[4] = Eterna round: R95, input ligand: none

Sequence | apparent KD of MS2 coat protein (input ligand: FMN 200 uM) [nM] | apparent KD of MS2 coat protein (input ligand: none) [nM] | apparent KD of MS2 coat protein [1] [nM] | apparent KD of MS2 coat protein [2] [nM] | apparent KD of MS2 coat protein [3] [nM] | apparent KD of MS2 coat protein [4] [nM]
AAUUAAGCAAGCAGAUCCCACAUGAGGAUCACCCAUGUGCUCGUCUUAUAAGGUACUGUGACGAAAGUCACGGUACC [Mat - Sensor, turn-off var - Eli Mod - D72] (Eterna round: R97, puzzle: Sensor, turn-off variant 1) | 129 | 120 |  |  |  | 
CCUCUACAUGAGGAUCACCCAUGUGAGGAUAUCUCGGAGCAGCCACUUAAGGCGCUCCAGAGAAGGCACGUGUA [Resogeorza] (puzzle: Exclusion 1) |  |  | 17.6 |  |  | 
AAUUAGCAAGCAAGAUCCCACAUGAGGAUCACCCAUGUGCUCGUCUUAUAAGGUACUGUGACGAUAGUCACGGUACC [Mat - Sensor, turn-off var - Eli Mod - D49] (Eterna round: R97, puzzle: Sensor, turn-off variant 1) | 42.9 | 49.4 |  |  |  | 
UAAAUGUGAGGAUAUUCGUAGAACUCGGAGACGAGUUUUACGGAGAAGGCACAUGAGGAUCACCCAUGUUCCUU [Mat - Exclusion 4 - JL Mod - D2] (Eterna round: R97, puzzle: Exclusion 4) | 169 | 28.6 |  |  |  | 
CCUCCGGUACGAGGAUAUCUGACGGCCGCCGGAGGAGAAGGCGUACAUGAGGAUCACCCAUGUCCAGCGUGCACCACGCUGGUU [Usbius] (Eterna round: R96, puzzle: Exclusion NG 1) | 119 | 44.9 |  | 38.1 |  | 
GAAUAGAGAGGAUAUGCGUAGUAGGUAGUAAGAUAUAUAUGACAUGAGGAUCACCCAUGUAGAAGGCUCAGAUA [EX2 #2] (Eterna round: R97, puzzle: Exclusion 2) | 38.3 | 35.8 |  |  |  | 
GUGUAGAUAGGAUAUGCAAGAGUCUAGCGAAGCUAGAUUCUACAUGAGGAUCACCCAUGUAGAAGGGUCUACAC [Fiskers Ex 2 - 29] (puzzle: Exclusion 2) |  |  | 17.3 |  |  | 
CCUUAGUCACAGGAUAUGCUCAUCUAAUGAUGAGCAGAAGGGUGGACAUGAGGAUCACCCAUGUUUAUCAAGGG [Omei Ex6 E2] (Eterna round: R97, puzzle: Exclusion 6) | 249 | 348 |  |  |  | 
UUUUGACAUGAGGAUCACCCAUGUGAGGAUAUGAUGCGAUCGUCGAAAGACGAUAGCAUCAGAAGGCACAUAUG [Fiskers Ex 1 - 9] (puzzle: Exclusion 1) |  |  | 125 |  |  | 
AAGUGGAAAACACAAUUGUACAUGAGGAUCACCCAUGUAUGUACGAAAUAUAGACAAGCUGUAUGCUCGACAACACA [Sensor v2 M17] (Eterna round: R96, puzzle: Sensor v2, turn-off variant) | 36.3 | 37 |  | 18.3 |  | 
UAUUAACAAGUAAGAUCCCACAUGAGGAUCACCCAUGUGCUCGUCUUAUAAGGUACUGUGACGAAAGUCACGGUACC [Sensor 3, v1 - 87] (Eterna round: R96, puzzle: Sensor v3, turn-off variant 1) | 13.8 | 16.9 |  | 367 |  | 
ACAUGAGGAUCACCCAUGUGAAAACAAUGGCUGACACAGAGAUAGGAUAUAUGUGCAUAUCAAACAUAGAAGGGUCAUUACUGG [Deportation 86 - Jieux - Exclusion NG 3] (Eterna round: R96, puzzle: Exclusion NG 3) | 42.6 | 46.2 |  | 40.2 |  | 
CUAGUCCGAGGAUAUAUUAUGUGAAACAUGAGGAUCACCCAUGUUAUAUGAUGGAUGAAAAUAGAAGGCGGACUAG [Mat - Exclusion 5 - JL mod - D61] (puzzle: Exclusion 5) |  |  | 72.8 |  | 20.4 | 88.1
GAUCAGAUAGGAUAUACAGGCCCGUCUUUAUAUUGAUCCCGACAUGAGGAUCACCCAUGUAGAAGGAUCAGAUC [Mod 28 - Jieux - Exclusion 2] (Eterna round: R97, puzzle: Exclusion 2) | 23.3 | 17.5 |  |  |  | 
GCAGGUCGAGGAUAUACAUGAGGAUCACCCAUGUGGUCACGUGACGAUAGUCACGAAUGUAGAAGGUGACCUGC [E3/3-B2] (Eterna round: R97, puzzle: Exclusion 3) | 3.13 | 207 |  |  |  | 
GGUGUGCUAGGAUAUGCUUUGGGCUCGCUUUCCUUCGUUUUACUUGAGGAUCACCCAAGUAGAAGGUGCUUGCC [salish99_ex2_r4_038] (Eterna round: R97, puzzle: Exclusion 2) | 13 | 13 |  |  |  | 
UCUCGACAUGAGGAUCACCCAUGUCAGGAUAUUGUGUUUGAGGUUUUUUACCUUUUGGCAAGAAGGGAUGUGUG [LRO-Excl1-21] (Eterna round: R96, puzzle: Exclusion 1) | 27.5 | 27.7 |  | 19.7 |  | 

Sequence | apparent KD of MS2 coat protein (input ligand: FMN 200 uM) [nM] | apparent KD of MS2 coat protein (input ligand: none) [nM] | apparent KD of MS2 coat protein [1] [nM] | apparent KD of MS2 coat protein [2] [nM] | apparent KD of MS2 coat protein [3] [nM] | apparent KD of MS2 coat protein [4] [nM]
GGCACACAUGAGGAUCACCCAUGUCAGGAUAUGUGGCGAUCGUCGAAAGACGAUAGCCACAGAAGGGACAGGCC [Eli x1 4.25] (Eterna round: R97, puzzle: Exclusion 1) | 68.7 | 49.8 |  |  |  | 
AAGAGGAAUAUAGGAUAUGAGGCUGAGACGGCGUCAGAAGGGUAUCCAGAGUUACAUGAGGAUCACCCAUGUGGUGAUUUCUAA [Exclusion NG 1 V2 1] (Eterna round: R96, puzzle: Exclusion NG 1) | 9.2 | 81.2 |  | 5.74 |  | 
AGCUGUGGCCGAGGAUAUCUAAACCUCAAAACCGAGGUAUACUCGGACAUGAGGAUCACCCAUGUAGAGAAGGCGGUCUCAGCA [Eli eng2 - 036] (Eterna round: R96, puzzle: Exclusion NG 2) | 107 | 443 |  | 190 |  | 
ACAUGAGGAUCACCCAUGUCCGGCUGGUCUGUUCCGGCUGUCGAGGAUAUAGUCCGGUGUUCGCGCUAGAAGGUGAGGGCUGGA [Aenatbe mod 45] (Eterna round: R96, puzzle: Exclusion NG 3) | 78.9 | 70.1 |  | 48.6 |  | 
ACAUGAGGAUCACCCAUGUGACCACAAUGGCUGAUGUAACAACAGGAUAUGCGUGAAUAUCUAACGCAGAAGGGUUAUGACUGG [Deportation 60 - Jieux - Exclusion NG 3] (Eterna round: R96, puzzle: Exclusion NG 3) | 73.5 | 65.4 |  | 71.6 |  | 
AGACAGUCAGGAUAUACAUGAGGAUCACCCAUGUUGAGAAGAGAAAGGGCAGGAAGAGGUAGAAGGGACAAGAA [JR_Exclu3_Sub034] (puzzle: Exclusion 3) |  |  | 25.7 |  | 21.3 | 29.3
GUCGUGCGGCUUUGCUGUACGAGUACAUGAGGAUCACCCAUGUAGGAUAUGGUUCGUUUUGCGUGCCAGAAGGGCGUGCGUUGU [Excl-NG3-LRO14] (Eterna round: R96, puzzle: Exclusion NG 3) |  |  |  | 15.1 |  | 
AUUUAGCAAGUUAGAUCCUACAUGAGGAUCACCCAUGUUGUUCGUCUUAUUUGAAGACAACACAAAAGUGUUGUCUU [Omei Mir OFFv1 B3] (Eterna round: R97, puzzle: Sensor, turn-off variant 1) | 107 | 100 |  |  |  | 
AUUAAAGACCGAGGAUAUCGAGGAAAUACACUGCGAGAAGGCGGGUACUCGGACGAUUCGACAUGAGGAUCACCCAUGUGCACA [Tixequ] (Eterna round: R96, puzzle: Exclusion NG 1) | 26.7 | 25.3 |  | 18.9 |  | 
UACAUGAGGAUCACCCAUGUUUUGUCGUGUAUGGUAUUUAUCUAGGAUAUCAUUAUAUUUAUUUAUGAGAAGGAGAAUAUUAAU [JMF's solution 97] (Eterna round: R96, puzzle: Exclusion NG 3) | 29.9 | 27.6 |  | 21.9 |  | 
GCACGAAGUGUAGGAUAUCUGUGCGAUUAGCUCAGAGAAGGACACAUGAGGAUCACCCAUGUGUUCCACGGAAACGAAACGUGC [Eli exng1 - 053] (Eterna round: R96, puzzle: Exclusion NG 1) | 9.14 | 11.9 |  | 8.47 |  | 
CUGUACUAAGGAUAUACAUGAGGAUCACCCAUGUCGAUGGUAGGCUGACCGUGACUCCGUAGAAGGUAGAUUCC [Eternabot (L1) Solution 77] (Eterna round: R97, puzzle: Exclusion 3) | 100 | 81.5 |  |  |  | 
UUUUAACAUGAGGAUCACCCAUGUGAGGAUAUCGAAAUUUAUAUUAAUAUUAUUAAUACGAGAAGGCACAUUUU [JMF 38] (puzzle: Exclusion 1) |  |  | 36.2 |  |  | 
GUGAAACAUGAGGAUCACCCAUGUGAGGAUAUGUUUUAGUACUGCAGACAGUACAUCUAUAGAAGGCACAAUGG [Mat - Mod of JL D74] (puzzle: Exclusion 1) |  |  | 37 |  |  | 
CAAACCAGAGGAUAUGCGCAUAGAUCAGACUUUGUUUCUUAACAUGAGGAUCACCCAUGUAGAAGGCUGUAAAA [Ex2 #73] (Eterna round: R97, puzzle: Exclusion 2) | 18.4 | 17.6 |  |  |  | 
CUCCGGCCUGUAGGAUAUGGAUCCGAUUAGGAUCCAGAAGGACAUGAGGAUCACCCAUGUACAUGUAAACAGUCAUCACCGGAC [salish99_ExNG1_r04_203] (Eterna round: R96, puzzle: Exclusion NG 1) | 23.8 | 16.7 |  | 15.2 |  | 
